We go through 1 molecule from patent US6548743B1, “Transgenic plants expressing a dual-specificity MAPK phosphatase and uses thereof” (The General Hospital Corporation, priority 1998, dated 2003).

For one test, the system named is Arabidopsis plants. Nature of the test: Phenotype of transgenic Arabidopsis plants expressing the transgene (35S CaMV promoter). The format is in vivo. The source says:
(§1) Next, we examined the phenotypic modifications of transgenic plants expressing MKP-1 under the control of the 35S CaMV promoter. For these experiments, we introduced the MKP-1 construct into tobacco cultivar SR1 and Arabidopsis plants according to standard Agrobacterium-mediated gene transfer methods. Initiation of flowering in the day-neutral tobacco cultivar SR1 is mainly dependent on the number of leaves found on the plants. These tobacco plants, in general, remain in the vegetative state until approximately twenty leaves have developed. […] Some transformants even initiated flowers after only a few small leaves had developed (FIG. 4). Despite early flowering, these plants were fertile. […] Similar results were obtained when MKP-1 was expressed in Arabidopsis plants.

Another test has as its system tobacco cultivar SR1. Nature of the test: Phenotype of transgenic tobacco SR1 plants expressing the transgene (35S CaMV promoter). The format is in vivo.
Source text: as §1

The subject of a further test is tobacco cells. Nature of the test: Auxin effect on division and differentiation of transfected tobacco cells. The format is cell-based. The protocol:
To examine the effects of auxin on cell division and differentiation of cells expressing MKP-1 SEQ ID NO.:10; tobacco cells transfected with the MKP-1 transgene expressed under the control of the 35S CaMV promoter were cultured on a medium containing 0.1 μM or 1 μM NAA. […] Since prevention of MAPK activation by MKP-1 can render plant cells less sensitive to auxin, activation of some MAPK pathways may be crucial in auxin stimulated plant cell proliferation.

Test [1] has as its system NPK1-dependent activation of a MAPK and repression of the GH3 promoter. As to the kind of experiment: Transient expression in maize protoplasts: reversal of NPK1 effects. To be noted: transfected maize protoplasts, 35S CaMV promoter. The format is cell-based. The source says:
A phosphatase domain containing a fragment of the mouse MKP-1 (amino acids 1-314 (SEQ ID NO.: 11); Sun et al., Cell 75: 487-493, 1993) was cloned into the plant expression vector pART7. This expression plasmid was then used for transient expression of MKP-1 in maize protoplasts.

B1: MKP-1: dual-specificity MAPK phosphatase; fragment of mouse MKP-1 (amino acids 1-314) expressed from a transgene under the 35S CaMV promoter (protein, UniProt P28563 1-314, looked up, fragment)
chain: MVMEVGILDAGGLRALLREGAAQCLLLDCRSFFAFNAGHIAGSVNVRFSTIVRRRAKGAMGLEHIVPNAELRGRLLAGAYHAVVLLDERSASLDGAKRDGTLALAAGALCREARSTQVFFLQGGYEAFSASCPELCSKQSTPTGLSLPLSTSVPDSAESGCSSCSTPLYDQGGPVEILSFLYLGSAYHASRKDMLDALGITALINVSANCPNHFEGHYQYKSIPVEDNHKADISSWFNEAIDFIDSIKDAGGRVFVHCQAGISRSATICLAYLMRTNRVKLDEAFEFVKQRRSIISPNFSFMGQLLQFESQVLA
Turning to B1, in the test on Arabidopsis plants (in vivo), the “fertility of reproductive organs” value is listed as “fertile”. Moreover, the inflorescence initiation result with Arabidopsis plants (progenies of several Arabidopsis lines) is “initiate the inflorescence stem without producing any rosette leaves”. Moreover, in the test on tobacco cultivar SR1 (MKP-1 transformed SR1 tobacco, FIG. 2), the “number of leaves before flowering compared to wild type” value is given as “about half”. In addition, in the test with tobacco cultivar SR1 (early flowering transformants), the fertility entry is listed as “fertile”. Besides, in the test on tobacco cultivar SR1 (in vivo), the “reduction in the vegetative life span of the plant” value was about 50%. The initiation of flowering entry in the test with tobacco cultivar SR1 (primary transgenic SR1 lines vs control plants) was “initiated flowering earlier than control plants”. Further, the “flower and seed production” value with tobacco cultivar SR1 (transgenic vs wild-type plants) was “more flowers and seeds than the wild-type plants”. In addition, the “cell division under low auxin” value in the test with tobacco cells (0.1 μM NAA) is given as “failed to divide”. Also, the “cell phenotype under high auxin” value in the test on tobacco cells (1 μM NAA) was “remained green and formed tight calli with differentiated shoot primordia”. Further, in the test with tobacco cells (constant concentration of cytokinin, compared with cells transfected with vector alone), the “level of auxin required to initiate cell division” value came out at 1 μM NAA. In test [1], the “effect on NPK1-dependent activation of a MAPK” value is on record as “complete elimination” and the “effect on repression of the auxin-inducibility of the GH3 promoter by NPK1” value is “complete elimination”.
